The nanobody polyreactivity screen of Harvey et al. (2022)

Assay: yeast display, Sf9 membrane polyspecificity reagent, FACS + sequencing; frameworks hold sequencing errors
Method in brief: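 Nanobodies from a synthetic yeast display library (Saccharomyces cerevisiae BJ5465), induced 36–48 hours with galactose, were stained 1 hour at 4 °C with 10% biotinylated, detergent-solubilized Sf9 membrane reagent, enriched on streptavidin microbeads, then FACS-sorted. Anti-HA (expression) and streptavidin (reagent binding) fluorescence set low and high (top ~1%) gates. Polyreactivity labels come from the gate of origin. Genes were colony-PCR amplified, MiSeq 2 × 250 sequenced and filtered by CDR length.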

Sequence	polyreactivity (PSR sort gate)
QVQLVESGGGLVQAGGSLRLRCAASGSTFGGYAMGWYRQAPGKERELVAAISRRGGRTYYADSVKGRFRISRDNAKNTVYLQRNSLKPEDTAVYYSAADWSYVRYYYWGQGTQVTVSS	high polyreactivity
QVQLVESGGGLVQAGGSLRLSCAASGGILVGYALGWYRQAPGKERELVAAITSTGSTYYADSVKGRFTISRDNAKNTVYLQMNSLKPEDTAVYYCNAIGLHRYDYWGQGTQETVSS	low polyreactivity
QDQHVESGGGLVQAGGSLRLICAASGFTFSHYPMGSYRQAPGKERELVAAINWSGGSTDYADSVKGRFTLSRDNAMNTVYLQMNSLKPVDTAVYYCNTVSYAYWGYYYWGQGTQVTLSS	high polyreactivity
QVQLVESGGGLVQAGGSLRLSCAASGRTFYLYTMGWYRQAPGKERELVAAINGSGGSTYYADSVKGRFTISRDNAKNTVYLQMNSLKPEATAVYYCAVLYRYGYDYWGQGTQVTVSS	low polyreactivity
QVQLVESGGGLVQAGGSLRLSCAASGRIFRFNAMGWYRQAPGKERELVAAITGSGGTTFYADSVKGRFTISRDNAKNTVYLQMNSLKPEDTAVYYCNTLGNWRPVYNQPRYEYWGQGTQVTVSS	high polyreactivity
QDQLVESRGALVQAGGSLRLSCAASGITFVRNAMGWYRQAPGKERELVAAISSGGSTYYADSVKGRFTISRDNAKNTVYLQMNSLTREDTAVYYCAVLSSWRFSGYDYWGQGSQVTVSS	low polyreactivity
QVQLVESGGGLVQAGGSLRLSCAAPGLTFWSYAMGWYRPAPGKERELVADITYRGGSTYYADSVKGRFTISRDNAKNTVYLQMNSLKPEDTAVYYCAARKKYRFDYWGQGTQVTVSS	high polyreactivity
QVQLVESGGGLVQAGGSLRLSCAASGRTYSNAMGWYRQAPGKERELVAAITWSGGRTYYADSVKGRFTISRDNAKNTVYLQMNSLKPEDTAVYYCAADSIWWPLWFDYWGQGTQVTVSS	high polyreactivity
QVQLVESGGGLVQAGGSLRLSCAASGSIFPDNAMGRYRQAAGKVRELVAAIDKGTGSTNYADSVKGRFTISRDNAKNSVYLQINSVKPEDTAGYYCDKGWLSPRGGAWYDDYWGQGTEVTVSS	low polyreactivity
QVQLVESGGGLVQAGGSLRLSCAASGRTFVANAMGWYRQAPGKERELVAAITSTGSTYYADSVKGRFTISRDNAKNTVYLQMNSLKPEDTAVYYCATYYWLGLSLYDYWGQGSQVTVSS	low polyreactivity
QVKLVESGGGLVQAGGSLRLSCAASGRIFSYNAMGGYRPEPGKESEVVAAMSDGGGRTYYADSVKGRFTISRDNAKNTVYVQMNSLKPEDTAVYYCAARYSVYYFGQRNGRYGYWGQGTQVTVSS	high polyreactivity
QVQLVESGGGLVQAGGSLRLSCAASGRTFRYYTMGWYRQAPGKERQFVAAISSTGGTYYADSVKGRFTISRDNAKNTVYLQMNSLKPADTAVYYCAATFIQVVVNVQLYDYDYWGQGTQVTVSS	low polyreactivity
QVQLVESGGGLVQAGGSLRLSCAASGSTSTRYAMGWYRPAPGKERELVAAISKSGGRTYYADSVKGRFTMSRDNAKNTVYLQMNSLKPEDTAVYYCNTVPGRYRTFDYWGQGTQVTVSS	high polyreactivity
QVQLVESGGGLVQAGGSLRLSCAASGSIFGLNAMGWYRQAPGKEREFVAAIDKNGAGTYYADSVKGRFTISRDNAKNTVYLQMNSLKPEDTAVYYCAAEYRSYGWYGYVVEYDYWGLGTQVTVSS	high polyreactivity
QVQLVESGGGLVQAGGSLRLSCAASGRTFWYNAMGWYRQAPGKEREFVAAITSSGGSTYYADSVKGRFTISRDNAKHTVFLQMNSLKPEDTAVYYCNKRPGPYKWPPRHDYWGQGTQVTVSS	low polyreactivity
PVQLVESGGGLVQAGGRLRLSCAASGIIFSDYAMGWYRQAPGKERELVAAIPGGGSTYYADSVKGRFTISRDNAKNTVYLQMNSLKPEDTAVYYCNADWARLWIRSTEVDYWGQGTQVTVSS	low polyreactivity
QFQLVESGGGLVQAGASLRLSCAASGSTFVRYAMGWYRQAPGKERDLVAAITWTGGITYYADSVKGRFTISRDNAKNTVYLHMNSLKPEDTAVYYCIAEQKQYEKSYDYWGQGTQVTVSS	low polyreactivity
